Data on one substance can be found in publication doi:10.1101/2021.08.16.456586.

Like-named read-outs stand apart in the source and are kept apart here.

The target in assay [1] is Empty HBV Cp183 capsid (Hepatitis B Virus (strain not stated)) (UniProt P03147). Briefly: charge detection mass spectrometry.
The target is the same in assay [2]. Briefly: charge detection mass spectrometry. The source holds these as a separate data set.
The target is the same in assay [3]. Kind of assay: charge detection mass spectrometry. The source holds these as a separate data set.
Assay [4] shares this target. Kind of assay: negative stain TEM, 2D class averages.

Sequence of UniProt P03147 (P03147 whole entry): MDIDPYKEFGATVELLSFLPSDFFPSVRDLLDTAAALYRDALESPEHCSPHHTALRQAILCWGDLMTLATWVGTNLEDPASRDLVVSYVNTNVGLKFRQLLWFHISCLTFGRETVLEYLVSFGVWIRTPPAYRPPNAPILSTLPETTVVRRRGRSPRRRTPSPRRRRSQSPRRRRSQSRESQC

Take “Importin β (from UniProt Q14974 1-876) (natural protein)”: the figures for the stoichiometry N (Impβ per capsid) in assay [1], in assay [2] and in assay [3] were 38, 38 and 64, respectively. This substance also gave a percent of empty capsids with externally bound Impβ in assay [4] of 90%. Also, the percent of particles with visible, externally bound Impβ in assay [4] was found to be 48%.
